“And” between values parts separate entries of the source, which are not always exact repeats. Equal values may be shown once. Read-outs that look alike come from different tables or passages of the source.
B1: TPP-14938 (bispecific antibody, human IgG1, kappa, L234A L235A)
light: DIQMTQSPSSLSASVGDRVTITCRASQVIRRSLAWYQQKPGKAPKLLIYAASNLASGVPSRFSGSGSGTDFTLTISSLQPEDFATYYCQQSNTSPLTFGQGTKVEIKRTVAAPSVFIFPPSDEQLKSGTASVVCLLNNFYPREAKVQWKVDNALQSGNSQESVTEQDSKDSTYSLSSTLTLSKADYEKHKVYACEVTHQGLSSPVTKSFNRGEC
heavy: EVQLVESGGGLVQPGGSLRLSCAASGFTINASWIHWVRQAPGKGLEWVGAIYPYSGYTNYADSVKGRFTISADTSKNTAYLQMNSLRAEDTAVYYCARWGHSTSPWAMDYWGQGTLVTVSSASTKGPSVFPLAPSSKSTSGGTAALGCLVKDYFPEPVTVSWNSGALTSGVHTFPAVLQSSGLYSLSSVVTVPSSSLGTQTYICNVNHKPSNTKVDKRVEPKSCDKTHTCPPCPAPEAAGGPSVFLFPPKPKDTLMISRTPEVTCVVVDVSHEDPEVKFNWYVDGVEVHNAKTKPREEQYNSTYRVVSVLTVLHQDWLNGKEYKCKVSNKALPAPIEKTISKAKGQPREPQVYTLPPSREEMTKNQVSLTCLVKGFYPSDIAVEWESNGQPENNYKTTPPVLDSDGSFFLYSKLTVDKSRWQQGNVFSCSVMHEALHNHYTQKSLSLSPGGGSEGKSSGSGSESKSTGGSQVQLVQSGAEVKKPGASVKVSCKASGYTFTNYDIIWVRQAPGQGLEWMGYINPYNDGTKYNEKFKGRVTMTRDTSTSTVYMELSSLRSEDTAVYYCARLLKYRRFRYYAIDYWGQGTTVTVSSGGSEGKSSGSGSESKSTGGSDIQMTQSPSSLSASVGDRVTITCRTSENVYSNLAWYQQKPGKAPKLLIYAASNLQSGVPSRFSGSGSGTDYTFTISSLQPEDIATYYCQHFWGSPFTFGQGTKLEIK
B2: TPP-14939 (bispecific antibody, human IgG1, kappa, L234A L235A)
light: B1 light
heavy: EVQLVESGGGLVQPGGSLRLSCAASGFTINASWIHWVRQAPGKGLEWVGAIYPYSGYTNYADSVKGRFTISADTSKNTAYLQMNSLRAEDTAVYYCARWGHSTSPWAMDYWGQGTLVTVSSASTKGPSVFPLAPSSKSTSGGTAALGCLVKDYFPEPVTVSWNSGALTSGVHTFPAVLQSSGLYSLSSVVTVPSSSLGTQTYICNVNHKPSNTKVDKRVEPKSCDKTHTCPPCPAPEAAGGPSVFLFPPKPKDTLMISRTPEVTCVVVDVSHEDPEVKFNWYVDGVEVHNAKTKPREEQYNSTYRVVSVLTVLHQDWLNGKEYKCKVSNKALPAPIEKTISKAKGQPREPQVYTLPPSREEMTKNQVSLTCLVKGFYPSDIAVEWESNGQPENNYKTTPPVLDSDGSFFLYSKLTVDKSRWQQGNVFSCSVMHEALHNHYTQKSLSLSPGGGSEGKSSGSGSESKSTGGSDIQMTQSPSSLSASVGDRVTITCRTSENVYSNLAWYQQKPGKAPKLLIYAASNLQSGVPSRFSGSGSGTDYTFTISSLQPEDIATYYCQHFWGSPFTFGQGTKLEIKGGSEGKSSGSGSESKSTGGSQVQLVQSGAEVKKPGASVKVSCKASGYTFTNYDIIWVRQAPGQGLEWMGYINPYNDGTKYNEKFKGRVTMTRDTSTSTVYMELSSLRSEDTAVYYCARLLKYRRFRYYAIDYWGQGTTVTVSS
B3: human BDNF (ligand, UniProt P23560 129-247, looked up)
chain: HSDPARRGELSVCDSISEWVTAADKKTAVDMSGGTVTVLEKVPVSKGQLKQYFYETKCNPMGYTKEGCRGIDKRHWNSQCRTTQSYVRALTMDSKKRIGWRFIRIDTSCVCTLTIKRGR
B4: TPP-13788 (B20 IgG) (antibody, V domains shown)
VH: EVQLVESGGGLVQPGGSLRLSCAASGFTINASWIHWVRQAPGKGLEWVGAIYPYSGYTNYADSVKGRFTISADTSKNTAYLQMNSLRAEDTAVYYCARWGHSTSPWAMDYWGQGTLVTVSS
VL: DIQMTQSPSSLSASVGDRVTITCRASQVIRRSLAWYQQKPGKAPKLLIYAASNLASGVPSRFSGSGSGTDFTLTISSLQPEDFATYYCQQSNTSPLTFGQGTKVEIK
B5: TPP-11736 (bispecific antibody, human IgG1, kappa, L234A L235A)
light: DIQMTQSPSSLSASVGDRVTITCRTSENVYSNLAWYQQKPGKAPKLLIYAASNLQSGVPSRFSGSGSGTDYTFTISSLQPEDIATYYCQHFWGSPFTFGQGTKLEIKRTVAAPSVFIFPPSDEQLKSGTASVVCLLNNFYPREAKVQWKVDNALQSGNSQESVTEQDSKDSTYSLSSTLTLSKADYEKHKVYACEVTHQGLSSPVTKSFNRGEC
heavy: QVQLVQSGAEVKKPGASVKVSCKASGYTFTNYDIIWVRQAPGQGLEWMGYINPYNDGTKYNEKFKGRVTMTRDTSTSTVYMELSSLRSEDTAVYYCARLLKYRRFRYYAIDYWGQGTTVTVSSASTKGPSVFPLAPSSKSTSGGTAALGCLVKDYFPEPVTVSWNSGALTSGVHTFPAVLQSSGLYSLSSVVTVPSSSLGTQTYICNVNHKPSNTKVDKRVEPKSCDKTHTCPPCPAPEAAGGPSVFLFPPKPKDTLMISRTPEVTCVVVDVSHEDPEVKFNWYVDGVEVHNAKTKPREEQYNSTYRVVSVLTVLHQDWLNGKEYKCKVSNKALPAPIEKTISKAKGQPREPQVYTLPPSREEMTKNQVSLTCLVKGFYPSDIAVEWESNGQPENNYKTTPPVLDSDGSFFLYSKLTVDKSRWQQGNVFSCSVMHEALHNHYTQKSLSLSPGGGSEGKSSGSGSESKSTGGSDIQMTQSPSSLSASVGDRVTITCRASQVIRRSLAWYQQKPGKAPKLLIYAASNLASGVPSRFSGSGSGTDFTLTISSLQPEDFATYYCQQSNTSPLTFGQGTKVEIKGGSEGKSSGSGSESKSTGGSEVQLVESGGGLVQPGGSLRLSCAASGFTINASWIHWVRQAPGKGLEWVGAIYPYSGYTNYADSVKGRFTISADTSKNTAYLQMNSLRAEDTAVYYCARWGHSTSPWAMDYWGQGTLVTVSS
B6: TPP-11738 (bispecific antibody, human IgG1, kappa, L234A L235A)
light: B5 light
heavy: not shown
B7: TPP-14936 (bispecific antibody, human IgG1, kappa, L234A L235A)
light: B5 light
heavy: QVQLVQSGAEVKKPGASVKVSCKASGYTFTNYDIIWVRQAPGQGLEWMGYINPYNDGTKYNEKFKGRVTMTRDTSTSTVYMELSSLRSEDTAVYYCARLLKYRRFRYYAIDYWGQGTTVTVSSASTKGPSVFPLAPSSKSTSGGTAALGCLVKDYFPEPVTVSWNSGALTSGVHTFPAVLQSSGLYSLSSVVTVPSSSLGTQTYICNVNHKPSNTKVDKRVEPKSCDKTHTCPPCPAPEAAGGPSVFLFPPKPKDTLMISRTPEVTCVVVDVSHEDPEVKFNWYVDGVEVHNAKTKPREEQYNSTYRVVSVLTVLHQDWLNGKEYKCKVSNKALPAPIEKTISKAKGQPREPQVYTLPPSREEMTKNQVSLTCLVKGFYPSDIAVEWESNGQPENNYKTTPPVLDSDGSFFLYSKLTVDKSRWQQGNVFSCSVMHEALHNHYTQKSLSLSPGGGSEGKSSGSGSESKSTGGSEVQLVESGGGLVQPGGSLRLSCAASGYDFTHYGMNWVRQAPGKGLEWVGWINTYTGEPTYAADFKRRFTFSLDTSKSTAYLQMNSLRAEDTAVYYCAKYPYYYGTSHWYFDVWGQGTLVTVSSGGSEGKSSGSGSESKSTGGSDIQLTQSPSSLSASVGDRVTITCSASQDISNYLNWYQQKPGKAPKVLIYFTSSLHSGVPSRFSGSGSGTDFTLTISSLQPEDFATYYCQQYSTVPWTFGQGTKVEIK
B8: TPP-14937 (bispecific antibody, human IgG1, kappa, L234A L235A)
light: B5 light
heavy: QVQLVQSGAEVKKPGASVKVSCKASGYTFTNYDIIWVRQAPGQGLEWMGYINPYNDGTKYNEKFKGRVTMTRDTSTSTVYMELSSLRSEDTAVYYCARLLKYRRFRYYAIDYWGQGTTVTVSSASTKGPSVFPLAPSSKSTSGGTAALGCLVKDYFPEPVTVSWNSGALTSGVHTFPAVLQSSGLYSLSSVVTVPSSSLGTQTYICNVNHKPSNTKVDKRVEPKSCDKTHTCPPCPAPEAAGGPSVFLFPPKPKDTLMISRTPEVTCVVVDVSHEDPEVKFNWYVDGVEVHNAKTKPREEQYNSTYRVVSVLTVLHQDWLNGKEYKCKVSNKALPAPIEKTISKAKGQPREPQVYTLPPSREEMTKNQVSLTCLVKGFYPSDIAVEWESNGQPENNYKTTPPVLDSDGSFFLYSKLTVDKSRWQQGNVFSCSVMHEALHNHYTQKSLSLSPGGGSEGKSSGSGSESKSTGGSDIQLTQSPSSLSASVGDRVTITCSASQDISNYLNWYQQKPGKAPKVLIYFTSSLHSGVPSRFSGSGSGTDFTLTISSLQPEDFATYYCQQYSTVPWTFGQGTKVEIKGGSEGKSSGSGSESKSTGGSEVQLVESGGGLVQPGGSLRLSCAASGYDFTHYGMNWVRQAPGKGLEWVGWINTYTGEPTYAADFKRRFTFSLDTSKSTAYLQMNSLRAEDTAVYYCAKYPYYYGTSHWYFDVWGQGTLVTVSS

Key:
Test in all cases: cell-based or functional assay
[1] = biological target: T1, human VEGF-A (human, UniProt P15692-4 27-191)
T1 sequence (P15692 other isoform, or with tags, fused parts or gaps limits assumed): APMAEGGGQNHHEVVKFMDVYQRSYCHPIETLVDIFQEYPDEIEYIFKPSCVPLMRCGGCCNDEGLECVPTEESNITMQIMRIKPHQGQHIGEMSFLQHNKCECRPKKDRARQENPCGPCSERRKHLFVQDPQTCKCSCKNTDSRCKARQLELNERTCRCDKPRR

[2] = biological target: T1, human VEGF-A; remark: listed apart in the source
[3] = biological target: T1, human VEGF-A; remark: listed apart in the source
[4] = biological target: T2, human TrkB receptor (human, UniProt Q16620 32-822)
T2 sequence (Q16620 32-822): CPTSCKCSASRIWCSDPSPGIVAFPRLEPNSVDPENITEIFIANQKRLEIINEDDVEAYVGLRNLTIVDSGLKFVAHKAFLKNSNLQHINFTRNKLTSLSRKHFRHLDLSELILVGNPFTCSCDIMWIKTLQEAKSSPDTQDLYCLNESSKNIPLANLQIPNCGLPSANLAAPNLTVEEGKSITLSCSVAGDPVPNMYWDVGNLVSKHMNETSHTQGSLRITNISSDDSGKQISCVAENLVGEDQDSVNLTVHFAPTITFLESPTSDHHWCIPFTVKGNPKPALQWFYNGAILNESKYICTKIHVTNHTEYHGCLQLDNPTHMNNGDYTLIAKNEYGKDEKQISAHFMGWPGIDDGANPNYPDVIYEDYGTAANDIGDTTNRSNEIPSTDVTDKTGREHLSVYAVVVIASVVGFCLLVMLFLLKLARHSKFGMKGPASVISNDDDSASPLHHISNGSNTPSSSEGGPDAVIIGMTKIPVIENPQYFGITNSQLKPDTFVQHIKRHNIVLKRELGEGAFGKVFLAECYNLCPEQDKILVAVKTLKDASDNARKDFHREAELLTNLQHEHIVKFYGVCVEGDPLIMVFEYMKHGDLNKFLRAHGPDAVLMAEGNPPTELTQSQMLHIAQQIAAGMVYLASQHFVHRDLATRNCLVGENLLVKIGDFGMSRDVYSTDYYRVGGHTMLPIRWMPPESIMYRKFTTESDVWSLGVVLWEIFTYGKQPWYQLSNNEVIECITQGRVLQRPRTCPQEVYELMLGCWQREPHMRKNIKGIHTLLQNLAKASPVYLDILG

[5] = biological target: T2, human TrkB receptor; remark: listed apart in the source
[6] = biological target: T1, human VEGF-A; remark: listed apart in the source
[7] = biological target: T1, human VEGF-A; remark: listed apart in the source
[8] = biological target: T1, human VEGF-A; remark: listed apart in the source

Row | Binder | concentration for full inhibition of VEGF-induced HRMEC proliferation [1] [nM] | Bottom plateau (ERK1/2 phosphorylation, counts) [2] [counts] | Bottom plateau (Src phosphorylation, counts) [2] [counts] | IC50 (ERK1/2 phosphorylation) [2] [nM] | IC50 (Src phosphorylation) [2] [nM] | Bottom plateau (ERK1/2 phosphorylation, counts) [3] [counts] | Bottom plateau (Src phosphorylation, counts) [3] [counts] | IC50 (ERK1/2 phosphorylation) [3] [nM] | IC50 (Src phosphorylation) [3] [nM] | Bottom plateau (ERK1/2 phosphorylation, counts) [7] [counts] | Bottom plateau (Src phosphorylation, counts) [7] [counts] | IC50 (ERK1/2 phosphorylation) [7] [nM] | IC50 (Src phosphorylation) [7] [nM] | Bottom plateau (ERK1/2 phosphorylation, counts) [8] [counts] | Bottom plateau (Src phosphorylation, counts) [8] [counts] | IC50 (ERK1/2 phosphorylation) [8] [nM] | IC50 (Src phosphorylation) [8] [nM] | other results
1 | B1 | > 16 | 1330 | 5480 | 2.71 | 1.8 | 1330 | 5480 | 2.71 | 1.8 |  |  |  |  |  |  |  |  | 
2 | B2 | > 16 | 1140 | 5540 | 2.51 | 1.16 | 1140 | 5540 | 2.51 | 1.16 |  |  |  |  |  |  |  |  | 
3 | B3 |  |  |  |  |  |  |  |  |  |  |  |  |  |  |  |  |  | EC50 (pERK) [4]: 0.507 nM; EC50 (pTrkB) [4]: 1.22 nM; EC50 (pERK) [5]: 0.282 nM; EC50 (pTrkB) [5]: 1.28 nM
4 | B4 |  |  |  |  |  |  |  |  |  |  |  |  |  |  |  |  |  | fold increase of VEGF-A scavenging potency vs. TPP-11736 [1]: ~3 fold; IC50 (ERK1/2 phosphorylation) [6]: 3 nM; IC50 (p38 MAPK phosphorylation) [6]: 2.4 nM
5 | B5 |  | 3690 | 6300 | 5.59 | 3.97 | 3690 | 6300 | 5.59 | 3.97 | 3690 | 6300 | 5.6 | 4 | 3690 | 6300 | 5.59 | 3.97 | IC50, inhibition of VEGF-induced ERK1/2 phosphorylation [1]: ~4 nM and ~10 nM; IC50, inhibition of VEGF-induced p38 MAPK phosphorylation [1]: ~7.4 nM; IC50 (ERK1/2 phosphorylation) [6]: 9.1 nM; IC50 (p38 MAPK phosphorylation) [6]: 7.7 nM
6 | B6 |  |  |  |  |  |  |  |  |  |  |  |  |  |  |  |  |  | IC50, inhibition of VEGF-induced ERK1/2 phosphorylation [1]: ~4 nM and ~10 nM
7 | B7 | 1 |  |  |  |  |  |  |  |  | -341 | 4650 | 3.5 | 3.4 | -340 | 4650 | 3.49 | 3.4 | 
8 | B8 | 4 |  |  |  |  |  |  |  |  | -927 | 4570 | 5.6 | 5.8 | -926 | 4570 | 5.58 | 5.83 | 
